Test results from the supplement of paper PMC10567573.

B1: TRIM43 (parent)
chain: YQEIFQQLQRSWVKMDQKSKHLKE
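Note: lentivirally expressed fusions sorted by FACS into six bins by GFP to DsRed ratio, PSI derived from sequencing read proportions per bin multiplied by bin number.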

Variants of: B1
Test: protein stability index of a GFP-peptide fusion (GPS, HEK-293T) (PSI 1-6); higher = more stable
Settings: c terminus: a fixed tail appended
YQEIFQQHQRSWVKMDQKSKHLKE showed a protein stability index of 3.06.
With YQEIFQQIQRSWVKMDQKSKHLKE the protein stability index was 1.97.
YQEIFQQKQRSWVKMDQKSKHLKE showed a protein stability index of 3.1.
Variant YQEIFQQMQRSWVKMDQKSKHLKE has a protein stability index of 2.66.
YQEIFQQNQRSWVKMDQKSKHLKE gave a protein stability index of 2.87.
YQEIFQQPQRSWVKMDQKSKHLKE showed a protein stability index of 2.06.
In the case of YQEIFQQQQRSWVKMDQKSKHLKE, the protein stability index is reported as 2.88.
YQEIFQQRQRSWVKMDQKSKHLKE gave a protein stability index of 3.03.
YQEIFQQSQRSWVKMDQKSKHLKE gave a protein stability index of 2.58.
YQEIFQQTQRSWVKMDQKSKHLKE showed a protein stability index of 3.24.
Variant YQEIFQQVQRSWVKMDQKSKHLKE has a protein stability index of 2.09.
With YQEIFQQWQRSWVKMDQKSKHLKE the protein stability index was 2.85.
Variant YQEIFQQYQRSWVKMDQKSKHLKE has a protein stability index of 2.66.
In the case of YQEIFQQLARSWVKMDQKSKHLKE, the protein stability index is reported as 1.83.
In the case of YQEIFQQLCRSWVKMDQKSKHLKE, the protein stability index is reported as 1.4.
For YQEIFQQLDRSWVKMDQKSKHLKE, the protein stability index was 2.6.
YQEIFQQLERSWVKMDQKSKHLKE gave a protein stability index of 2.72.
Work on YQEIFQQLFRSWVKMDQKSKHLKE yielded a protein stability index of 2.23.
Variant YQEIFQQLGRSWVKMDQKSKHLKE has a protein stability index of 2.59.
In the case of YQEIFQQLHRSWVKMDQKSKHLKE, the protein stability index is reported as 1.95.
YQEIFQQLIRSWVKMDQKSKHLKE gave a protein stability index of 1.71.
In the case of YQEIFQQLKRSWVKMDQKSKHLKE, the protein stability index is reported as 1.88.
YQEIFQQLLRSWVKMDQKSKHLKE gave a protein stability index of 1.83.
Work on YQEIFQQLMRSWVKMDQKSKHLKE yielded a protein stability index of 2.32.
YQEIFQQLNRSWVKMDQKSKHLKE gave a protein stability index of 2.25.
For YQEIFQQLPRSWVKMDQKSKHLKE, the protein stability index was 2.73.
With YQEIFQQLRRSWVKMDQKSKHLKE the protein stability index was 3.11.
Work on YQEIFQQLSRSWVKMDQKSKHLKE yielded a protein stability index of 2.58.
YQEIFQQLTRSWVKMDQKSKHLKE showed a protein stability index of 2.19.
For YQEIFQQLVRSWVKMDQKSKHLKE, the protein stability index was 1.88.
Work on YQEIFQQLWRSWVKMDQKSKHLKE yielded a protein stability index of 2.39.
YQEIFQQLYRSWVKMDQKSKHLKE showed a protein stability index of 2.67.
YQEIFQQLQASWVKMDQKSKHLKE gave a protein stability index of 2.74.
For YQEIFQQLQCSWVKMDQKSKHLKE, the protein stability index was 1.96.
Work on YQEIFQQLQDSWVKMDQKSKHLKE yielded a protein stability index of 2.99.
YQEIFQQLQESWVKMDQKSKHLKE gave a protein stability index of 2.66.
With YQEIFQQLQFSWVKMDQKSKHLKE the protein stability index was 1.78.
YQEIFQQLQGSWVKMDQKSKHLKE showed a protein stability index of 3.03.
In the case of YQEIFQQLQHSWVKMDQKSKHLKE, the protein stability index is reported as 2.27.
YQEIFQQLQISWVKMDQKSKHLKE gave a protein stability index of 2.95.
YQEIFQQLQKSWVKMDQKSKHLKE showed a protein stability index of 2.12.
YQEIFQQLQLSWVKMDQKSKHLKE gave a protein stability index of 2.4.
YQEIFQQLQMSWVKMDQKSKHLKE gave a protein stability index of 2.57.
Variant YQEIFQQLQNSWVKMDQKSKHLKE has a protein stability index of 2.84.
YQEIFQQLQPSWVKMDQKSKHLKE showed a protein stability index of 2.55.
YQEIFQQLQQSWVKMDQKSKHLKE gave a protein stability index of 2.35.
Variant YQEIFQQLQSSWVKMDQKSKHLKE has a protein stability index of 2.71.
For YQEIFQQLQTSWVKMDQKSKHLKE, the protein stability index was 1.94.
YQEIFQQLQVSWVKMDQKSKHLKE gave a protein stability index of 2.26.
YQEIFQQLQWSWVKMDQKSKHLKE showed a protein stability index of 1.89.
YQEIFQQLQYSWVKMDQKSKHLKE gave a protein stability index of 1.79.
Variant YQEIFQQLQRAWVKMDQKSKHLKE has a protein stability index of 1.34.
With YQEIFQQLQRCWVKMDQKSKHLKE the protein stability index was 1.97.
YQEIFQQLQRDWVKMDQKSKHLKE gave a protein stability index of 2.68.
YQEIFQQLQREWVKMDQKSKHLKE gave a protein stability index of 1.75.
For YQEIFQQLQRGWVKMDQKSKHLKE, the protein stability index was 2.1.
Variant YQEIFQQLQRHWVKMDQKSKHLKE has a protein stability index of 2.18.
YQEIFQQLQRIWVKMDQKSKHLKE showed a protein stability index of 2.57.
YQEIFQQLQRKWVKMDQKSKHLKE showed a protein stability index of 1.93.
YQEIFQQLQRLWVKMDQKSKHLKE showed a protein stability index of 2.21.
In the case of YQEIFQQLQRMWVKMDQKSKHLKE, the protein stability index is reported as 1.93.
Variant YQEIFQQLQRNWVKMDQKSKHLKE has a protein stability index of 2.73.
In the case of YQEIFQQLQRPWVKMDQKSKHLKE, the protein stability index is reported as 2.3.
YQEIFQQLQRQWVKMDQKSKHLKE gave a protein stability index of 1.8.
YQEIFQQLQRRWVKMDQKSKHLKE gave a protein stability index of 1.82.
With YQEIFQQLQRTWVKMDQKSKHLKE the protein stability index was 1.81.
In the case of YQEIFQQLQRVWVKMDQKSKHLKE, the protein stability index is reported as 1.63.
In the case of YQEIFQQLQRWWVKMDQKSKHLKE, the protein stability index is reported as 1.56.
With YQEIFQQLQRYWVKMDQKSKHLKE the protein stability index was 2.65.
For YQEIFQQLQRSAVKMDQKSKHLKE, the protein stability index was 3.07.
Work on YQEIFQQLQRSCVKMDQKSKHLKE yielded a protein stability index of 2.34.
YQEIFQQLQRSDVKMDQKSKHLKE showed a protein stability index of 2.78.
Variant YQEIFQQLQRSEVKMDQKSKHLKE has a protein stability index of 3.16.
YQEIFQQLQRSFVKMDQKSKHLKE gave a protein stability index of 2.57.
In the case of YQEIFQQLQRSGVKMDQKSKHLKE, the protein stability index is reported as 2.84.
Work on YQEIFQQLQRSHVKMDQKSKHLKE yielded a protein stability index of 2.5.
With YQEIFQQLQRSIVKMDQKSKHLKE the protein stability index was 2.29.
YQEIFQQLQRSKVKMDQKSKHLKE showed a protein stability index of 2.7.
In the case of YQEIFQQLQRSLVKMDQKSKHLKE, the protein stability index is reported as 2.4.
YQEIFQQLQRSMVKMDQKSKHLKE showed a protein stability index of 2.42.
In the case of YQEIFQQLQRSNVKMDQKSKHLKE, the protein stability index is reported as 2.81.
With YQEIFQQLQRSPVKMDQKSKHLKE the protein stability index was 3.48.
YQEIFQQLQRSQVKMDQKSKHLKE gave a protein stability index of 2.65.
For YQEIFQQLQRSRVKMDQKSKHLKE, the protein stability index was 3.12.
With YQEIFQQLQRSSVKMDQKSKHLKE the protein stability index was 2.55.
YQEIFQQLQRSTVKMDQKSKHLKE gave a protein stability index of 2.88.
In the case of YQEIFQQLQRSVVKMDQKSKHLKE, the protein stability index is reported as 2.69.
With YQEIFQQLQRSYVKMDQKSKHLKE the protein stability index was 2.18.
In the case of YQEIFQQLQRSWAKMDQKSKHLKE, the protein stability index is reported as 2.04.
In the case of YQEIFQQLQRSWCKMDQKSKHLKE, the protein stability index is reported as 2.02.
In the case of YQEIFQQLQRSWDKMDQKSKHLKE, the protein stability index is reported as 2.54.
For YQEIFQQLQRSWEKMDQKSKHLKE, the protein stability index was 3.48.
YQEIFQQLQRSWFKMDQKSKHLKE gave a protein stability index of 2.07.
In the case of YQEIFQQLQRSWGKMDQKSKHLKE, the protein stability index is reported as 2.79.
